Assay: soluble on expression in E. coli; label from the status in PepcDB or PDB records

Sequence	soluble on expression in E. coli
MSVKMKKCSREDLQTLQQLSIETFNDTFKEQNSPENMKAYLESAFNTEQLEKELSNMSSQFFFIYFDHEIAGYVKVNIDDAQSEEMGAESLEIERIYIKNSFQKHGLGKHLLNKAIEIALERNKKNIWLGVWEKNENAIAFYKKMGFVQTGAHSFYMGDEEQTDLIMAKTLILEHHHHHH	soluble
MLFISSDNQKEKRGMAGNKKINRREEILQALAEMLESNEGASRITTAKLAKQVGVSEAALYRHFPSKARMFEGLIEFIEESLMSRINRIFDEEKDTLNRIRLVMQLLLAFAERNPGLTRILSGHALMFENERLRDRINQLFERIETSLRQILRERKLREGKSFPVDENILAAQLLGQVEGSLNRFVRSDFKYLPTANFDEYWALLSAQIK	soluble
LEYLKNNCKVIIVDMHAEATSEKCALAWYLDGRVSCVLGTHTHVQTADERILPFGTAFISDVGMTGPYDGIIGVNREIVIQKFLTHMPVRFEVATGRVQFNAVYLEIDEKTGKTTGIERIYEILEV	not soluble
SNAMILVPIDISDKEFTERIISHVESEARIDDAEVHFLTVIPSLPYYASLGMAYTAELPGMDELREGSETQLKEIAKKFSIPEDRMHFHVAEGSPKDKILALAKSLPADLVIIASHRPDITTYLLGSNAAAVVRHAECSVLVVR	soluble
MTLNSLPLLRMGTVPLASRISTPLSLRLVSLSLERIRCAGTLRAPFPLPLYFSPGEQPLLHMALPLAARQHFLEHGYAIVPNVLSSSVVERIRSAALASTTARFRSFAHLPNVHSLLKSTPKCTDPLQDGLMSHLQKRRYILRYYRDMRRHKRRLRRAAKAFLNGRDVSELGREDMLRLSEMVCAEAQKVWSRGCTSTVKTDLQMLTAINQYRANAWMTNAQLEAVLRDNEEFVKPLSQLAEVVGGVARPVIFGDVPLLREAYGNPVGYHCLAPTIGTRTNARVSKGGGEATAVSMVLFTYTPTPLCLPPFVLRNSQHAVRRQYLHSVHAERLWRPFAPMEADIRDQLRRFQFDASVVGQPLLAAMAGPSSTPAAPVIGPGTVMVVDPHLMMAFGGNMTPQSEVLYRINVVAENARPHLMAPSWIRGWRTMPEEVHFASPVVFPPLYVE	not soluble
MRNICFVACMLFCLASASGKTVKNHPFVSIADSILDNVLNLYQTEDGLLTETYPVNPDQKITYLAGGAQQNGTLKASFLWPYSGMMSGCVAMYQATGDKKYKTILEKRILPGLEQYWDGERLPACYQSYPVKYGQHGRYYDDNIWIALDYCDYYRLTKKADYLKKAIALYEYIYSGWSDELGGGIFWCEQQKEAKHTCSNAPSTVLGVKLYRLTKDKKYLNKAKETYAWTRKHLCDPDDFLYWDNINLKGKVSKDKYAYNSGQMIQAGVLLYEETGDKDYLRDAQKTAAGTDAFFRSKADKKDPSVKVHKDMSWFNVILFRGFKALEKIDHNPTYVRAMAENALHAWRNYRDANGLLGRDWSGHNEEPYKWLLDNACLIELFAEIEKLEHHHHHH	not soluble
MKIFVLSIRPEEKAQRTGGACFDILNVPVTRLEPIPVDYTDLIRSGVDCVAFTSSYGVRLFFKNAPVKNFRYFGIGKSTCEEVRKYGYDCEYPEKMDSEGLADMIISHCSGRKVALIRSANANEIVNEKIMGHVDFIDLRNYRAVNTNVDLTPYMAKEECMGIIVTSSMEAKIAMPAIKATGKPVYSIGSVTTKTLEEAGIHPAISGNSDFVDLVEKIKKYLCLV	not soluble
MRIIEQDPWLRPYESVIESRLKYARKRETDLTGGRSGGLSDFANGHLYYGLHQDGDSWVIREFAPEATAVYLIGELSRWRRLPQFRFAPVDEAGSWELRLSCRLLPHGSRYRLFFEWPGGEGERIPAWCNRVEQDPETYLFYAQVWVPDTPYEMKHPHPNR	not soluble
MGSDKIHHHHHHMQQLQAAVALHKQGELDKAEAIYQQVLAVDVNNFYALNFCGSIKREKKRFDEGIDFLSRAISLQPDNPDAIYNLGNVFKDSERWDEAISCYEKTLGLRAESPEALNNLGICLKEVERFEYSEIVLRRVVSMQPGLAGAWLNLGNTFKEQEKYSEAKASYRNAIDLKPDFEAAYFALGLVLKEEGKVEEAIASYRKAIELKPDFADVYFALGLVLKEAGEFEAARQIVSALSTVNAMEDSTLLSFSLCDLVFDWYHRRVLNLLEDVEMTALSGASAPFSAYETVRKIQPQLFPPLFLKGEGDRANEKHLYRNGYLVEDEILPEDLCAEFVNGFEGANAMSAALIRAVSEKGVLGSVLGKIFKHTDFPHLVWNCIYFAKGPDDQAISDAWHYDNHYNVWTPKLMIYLNSQREEGGATEFVDTSLSRRLSEETDYMGFIWQRESYADRVKGSVKDLGLDPATLDPDHYTFSPDHAGSGVWFCPSRVLHRGVSPKKGVRHVLSFSLTPLPHDCGWSIDQCVDKSIEILQDKINKGMQKSDVNPYWIPAEAGYA	not soluble
MSLKKRYDLSYNFNVHEVPRAALEERFDPKSPTKRSIAIVFEEIKNWISDIPYVISLSYTDAQDKSKKIMNVTTDSLTKVLQADLPGSYNLEYIESKFCPGEIVGKSNVLVTMPVAPTMEVKSFPILDQCVGQVGLNFELSFTGAPPYYYNTKIYKLENGERKLYDAKRYTSEGTRNRFSYSPPKEGNYEIVFDTVSNKLFTEPIKLEPVKEYTFKTSMRVKPSASLKLHHDLKLCLGDHSSVPVALKGQGPFTLTYDIIETFSSKRKTFEIKEIKTNEYVIKTPVFTTGGDYILSLVSIKDSTGCVVGLSQPDAKIQVRRDEGHHHHHH	soluble
MGHHHHHHSHMIFLSTLFWYNKLMNKSTFSLNDTAWVDFYQLQNPRQNENYTFPAIIICPGGGYQHISQRESDPLALAFLAQGYQVLLLNYTVMNKGTNYNFLSQNLEEVQAVFSLIHQNHKEWQINPEQVFLLGCSAGGHLAAWYGNSEQIHRPKGVILCYPVTSFTFGWPSDLSHFNFEIENISEYNISEKVTSSTPPTFIWHTADDEGVPIYNSLKYCDRLSKHQVPFEAHFFESGPHGVSLANRTTAPSDAYCLPSVHRWVSWASDWLERQIKN	soluble
MNTMLFSPYTIRGLTLKNRIVMSPMCMYSCDTKDGAVRTWHKIHYPARAVGQVGLIIVEATGVTPQGRISERDLGIWSDDHIAGLRELVGLVKEHGAAIGIQLAHAGRKSQVPGEIIAPSAVPFDDSSPTPKEMTKADIEETVQAFQNGARRAKEAGFDVIEIHAAHGYLINEFLSPLSNRRQDEYGGSPENRYRFLGEVIDAVREVWDGPLFVRISASDYHPDGLTAKDYVPYAKRMKEQGVDLVDVSSGAIVPARMNVYPGYQVPFAELIRREADIPTGAVGLITSGWQAEEILQNGRADLVFLGRELLRNPYWPYAAARELGAKISAPVQYERGWRF	soluble
MIDFNQLDDLARRLSDLVPPGLRQSREELQSTFKGALQAGLGKLDLVTREEFDVQRAVLLRTREKLDALEQTVAALEARSGNAPPTSPTP	not soluble
MFSVNNTHSSVSCSPSINSNSTSNEHYLRILTEWEKNSSPGEERGIAFNRLSQCFQNQEAVLNLSDLNLTSLPELPKHISALIVENNKLTSLPKLPAFLKELNADNNRLSVIPELPESLTTLSVRSNQLENLPVLPNHLTSLFVENNRLYNLPALPEKLKFLHVYYNRLTTLPDLPDKLEILCAQRNNLVTFPQFSDRNNIRQKEYYFHFNQITTLPESFSQLDSSYRINISGNPLSTRVLQSLQRLTSSPDYHGPQIYFSMSDGQQNTLHRPLADAVTAWFPENKQSDVSQIWHAFEHEEHANTFSAFLDRLSDTVSARNTSGFREQVAAWLEKLSASAELRQQSFAVAADATESCEDRVALTWNNLRKTLLVHQASEGLFDNDTGALLSLGREMFRLEILEDIARDKVRTLHFVDEIEVYLAFQTMLAEKLQLSTAVKEMRFYGVSGVTANDLRTAEAMVRSREENEFTDWFSLWGPWHAVLKRTEADRWAQAEEQKYEMLENEYSQRVADRLKASGLSGDADAEREAGAQVMRETEQQIYRQLTDEVLALRLSENGSRLHHS	not soluble
MHHHHHHSSGRENLYFQGSEREASRLDKFKQLLAGPNTDLEELRRLSWSGIPKPVRPMTWKLLSGYLPANVDRRPATLQRKQKEYFAFIEHYYDSRNDEVHQDTYRQIHIDIPRMSPEALILQPKVTEIFERILFIWAIRHPASGYVQGINDLVTPFFVVFICEYIEAEEVDTVDVSGVPAEVLCNIEADTYWCMSKLLDGIQDNYTFAQPGIQMKVKMLEELVSRIDEQVHRHLDQHEVRYLQFAFRWMNNLLMREVPLRCTIRLWDTYQSEPDGFSHFHLYVCAAFLVRWRKEILEEKDFQELLLFLQNLPTAHWDDEDISLLLAEAYRLKFAFADAPNHYKK	soluble
MSLLNRLRAFRERGWREVDAPTYAQAWQRFGGSVATHPLVVEQLAEMAGIPVRYLGWESAGELVAAIPTWGRHLALSKDVLKRRGKKGLYDLGNAELILPVAGDARIALRHAGRYLSALHERNIVTLRPQTEQLAFARAPEDFSKKFRYNQRREVRLVEEAGGQVRQADSFAPAEFAAMYLELFQRRWGFPATGAERMAEVFERLRELLRGSVLLLNDQPIAVQVLYRAEAPGWLSVEYINGGVDPQTREFSPGSVLSYLNTQAAWEDARALGKPLRYSFGRADREYKDRWCHPSPVFQVEGHHHHHH	soluble
MAHHHHHHMFAFLNVAFMAAIRRKLKELKPPARRQSHRCAPEVYSQEGPTRHYFLPSVERIDKKTCISHRLLYIPEVENFPLVDGFFFVKSNPMTLVGLRMTTAGEHHTAASTVRQFTECLAAYFNGWEELSREMSWEMIYVQHADSTPMNDWQRCDVDNSNNLTEEGREIAAFWNEKVRQYQVSI	not soluble
MRTLITGASGQLGIELSRLLSERHEVIKVYNSSEIQGGYKLDLTDFPRLEDFIIKKRPDVIINAAAMTDVDKCEIEKEKAYKINAEAVRHIVRAGKVIDSYIVHISTDYVFDGEKGNYKEEDIPNPINYYGLSKLLGETFALQDDSLIIRTSGIFRNKGFPIYVYKTLKEGKTVFAFKGYYSPISARKLASAILELLELRKTGIIHVAGERISRFELALKIKEKFNLPGEVKEVDEVRGWIAKRPYDSSLDSSRARKILSTDFYTLDLDGMVV	soluble
MAHHHHHHMLLQFNWDRLDVTAAEAICALLNAKLEEELLLRRAANQSVNASGGQETASADAACGVESLRVTNIEWGNVPPFIEVVELDDAVEFASSTPLSFEAPLGQQDFGGTISSGTCGGGATTPFFLRPSPASSVTMMDGISETDSGIVGNHGGMPTPSVPPASGIRPGNGQSPINSSSAPVKDAFAAYFGPKGLYVCLHVTYGGPMRVSVASVLRHDVPLGPIAIPVRMPLQLHFSKMDMDFHLCINLHRNTCRVWMEPGKLFTSPLNRMNVMAVFGERRPSSQHMAEFPTSGQNAGDDLDTSDAWTHVGSSRIGSDDAEDMVFIDESIISQFVLKEVRAILQEKIIYPHSVVVPLSL	not soluble
MEHFLQYVWQHRLYSSLSYGADAFFLEPEVIDPGMLNRDSGPDFFNAKVKVGDLLWAGNVEIHCRASDWVRHGHHLDPAYDNVVLHVVETDDLPIRHRISGEPVPVCVMHVDERLRANADFMLRTSLLPGCKDRLHELDSLEVHDWLDTLVVERLERKAAEVDRLYLSTSMDWNATAYILLARHFGFGLNNDALERLARSLPFAAIAKHRSNLLQVEALLLGQAGLLADLEDEYAEKLASEYAFLRHKFDLQPLDPSLFRLHRARPASFVHRRLGQLAAILHRCEFLFSSFVETVSAKELAQKLSVEASSYWASHYRFGKPTPVPSRSTLAAISSDALLINVAAPLRYAWLRGQSMEDYRERTIDFLRGIKPENNKPVRAFSQICRPADAAESQALIQLYREYCERRKCFFCRWGYRLLSCCKG	not soluble
